Assay results published in PMC9633789 (Nature Communications, 2022).

Target: the molecule itself
Assay: SEC; Superose 6 Increase 10/300 GL; 25 mM HEPES-KOH pH 8.0, 100 mM NaCl, 5 mM MgCl2, 1 mM DTT, 10% sucrose; step of the purification of His-p97

B1: His-p97 (recombinant Xenopus p97) (enzyme, UniProt P23787 1-805, looked up)
chain: MASGSDTKSDDLSTAILKQKSRPNRLIVDESINEDNSMVSLSQAKMDELQLFRGDTVLLKGKKRREAVCIVLSDDTCSDEKIRMNRVVRNNLRVRLGDVISIQPCPDVKYGKRVHVLPIDDTVEGITGNLFEVYLKPYFLEAYRPIRKGDIFLVRGGMRAVEFKVVETDPSPYCIVAPDTVIHCEGEPIKREDEEESLNEVGYDDIGGCRKQLAQIKEMVELPLRHPALFKAIGVKPPRGILLYGPPGTGKTLIARAVANETGAFFFLINGPEIMSKLAGESESNLRKAFEEAEKNAPAIIFIDELDAIAPKREKTHGEVERRIVSQLLTLMDGLKQRAHVIVMAATNRPNSIDPALRRFGRFDREVDIGIPDSTGRLEILQIHTKNMKLSDDVDLEQVANETHGHVGADLAALCSEAALQAIRKKMDLIDLEDETIDAEVMNSLAVTMDDFRWALSQSNPSALRETVVEVPQVTWEDIGGLEDVKRELQELVQYPVEHPDKFLKFGMTPSKGVLFYGPPGCGKTLLAKAIANECQANFISIKGPELLTMWFGESEANVREIFDKARQAAPCVLFFDELDSIAKARGGNIGDGGGAADRVINQILTEMDGMSIKKNVFIIGATNRPDIIDPAILRPGRLDQLIYIPLPDEKSRMAILKANLRKSPVAKDVDVDFLAKMTNGFSGADLTEICQRACKLAIRESIENEIRRERDRQTNPSAMEVEEDDPVPEIRRDHFEEAMRFARRSVSDNDIRKYEMFAQTLQQSRGFGSFRFPAGGQSGAGPSPGAGGGSGGGHFTEEDDDLYG
notes: p97, Xenopus; source: E. coli Rosetta 2 (DE3), purified (HisTrap HP, Superose 6 Increase)
stoichiometry N: 6
